Results published in patent publication US20210188980A1 (SHANGHAI EPIMAB BIOTHERAPEUTICS, published 2021).
Residue numbers refer to the chain shown, from its start. Names may count otherwise.

How the values were obtained:
[1] = target: T1, recombinant human LAG-3-his protein (Novoprotein) (human, UniProt P18627 23-450); test: BLI Octet, Ab on AHC sensor, huLAG-3-his; test group 3
T1 construct: Bought; also called huLAG-3; not shown: His tag
T1 sequence (looked up): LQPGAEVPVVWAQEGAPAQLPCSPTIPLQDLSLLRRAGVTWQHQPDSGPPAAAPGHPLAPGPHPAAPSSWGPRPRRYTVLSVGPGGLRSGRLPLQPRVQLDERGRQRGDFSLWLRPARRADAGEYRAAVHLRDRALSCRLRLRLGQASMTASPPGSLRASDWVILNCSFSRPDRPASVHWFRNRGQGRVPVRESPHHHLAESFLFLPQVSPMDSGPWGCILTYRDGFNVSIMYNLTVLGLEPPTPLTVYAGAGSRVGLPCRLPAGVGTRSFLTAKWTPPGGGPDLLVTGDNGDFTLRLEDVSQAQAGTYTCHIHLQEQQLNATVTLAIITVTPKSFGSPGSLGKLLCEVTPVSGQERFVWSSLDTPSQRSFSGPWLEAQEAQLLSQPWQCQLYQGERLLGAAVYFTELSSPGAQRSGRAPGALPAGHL
Description: (§1) All 18 humanized antibodies (Table 34) and a chimeric antibody having the parental murine VH and VL domains (mAb747c) were ranked by dissociation rate constant (koff). Briefly, antibodies were characterized for affinities and binding kinetics by Octet®RED96 biolayer interferometry (Pall ForteBio LLC). Antibodies were captured by Anti-hIgG Fc Capture (AHC) Biosensors (Pall) at a concentration of 100 nM for 30 seconds. Sensors were then dipped into running buffer (1× pH7.2 PBS, 0.05% Tween 20, 0.1% BSA) for 60 seconds to check baseline. Binding was measured by dipping sensors into a single concentration of recombinant human LAG-3-his protein (Novoprotein). Dissociation was followed by dipping sensors into running buffer for 1200 seconds. The association and dissociation curves were fitted to a 1:1 Langmuir binding model using FortéBio Data Analysis software (Pall). In each test group, the off-rates of antibodies were able to be compared with that of mAb747c. The off-rate ratios were calculated by the off-rate of antibody to that of mAb747c of its group and were compared all together. The lower the ratio was, the higher was the affinity of the antibody.

[2] = target: T1, recombinant human LAG-3-his protein …; test: BLI Octet, Ab on AHC sensor, huLAG-3-his; test group 2
Description: as §1, with “9” for “18”, “25)” for “34)”, “Octet RED96” for “Octet®RED96”, “FortéBio” for “ForteBio”, “Anti-HIgG” for “Anti-hIgG”, “(Pall).” for “(Pall). In each test group, the off-rates of antibodies were able to be compared with that of mAb747c. The off-rate ratios were calculated by the off-rate of antibody to that of mAb747c of its group and were compared all together. The lower the ratio was, the higher was the affinity of the antibody.”
All 13 humanized antibodies (Table 39) and chimeric anti-LAG-3 antibody mAb747c having the parental murine VH and VL domains were ranked by dissociation rate constant (koff) in the same manner described in Example 9.1 supra. In each test group, the off-rates of antibodies were able to be compared with that of mAb747c. The off-rate ratios were calculated by the off-rate of antibody to that of mAb747c of its group and were compared all together. The lower the ratio was, the higher was the affinity of the antibody.

Cyno PD-1-His = Cyno PD-1-His (cynomolgus, UniProt B0LAJ3 25-170); test: BLI Octet, FIT-Ig captured, antigen analyte
Cyno LAG-3-His = Cyno LAG-3-His (cynomolgus); test: BLI Octet, FIT-Ig captured, antigen analyte
human PD-1-His protein = target: T2, human PD-1-His protein (human, UniProt Q15116 25-167, limits assumed); test: BLI Octet, FIT-Ig captured, antigen analyte
T2 construct: also called huPD-1; not shown: His tag

[3] = target: T1, recombinant human LAG-3-his protein …; test: BLI Octet, FIT-Ig captured, antigen analyte

Sequence of Cyno PD-1-His (B0LAJ3 entry or part of it limits assumed): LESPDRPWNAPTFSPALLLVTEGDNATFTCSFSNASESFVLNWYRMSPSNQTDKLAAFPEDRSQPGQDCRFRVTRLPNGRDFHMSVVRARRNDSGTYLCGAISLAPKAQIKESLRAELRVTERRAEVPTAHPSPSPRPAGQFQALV
T2 sequence (Q15116 25-167 limits assumed): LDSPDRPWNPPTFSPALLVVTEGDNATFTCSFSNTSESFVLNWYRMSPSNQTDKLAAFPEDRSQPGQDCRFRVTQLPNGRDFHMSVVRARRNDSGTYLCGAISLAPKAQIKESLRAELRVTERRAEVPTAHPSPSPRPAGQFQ

B1: HumAb747-55 (antibody, human IgG1, V domains shown)
VH: EVQLVQSGAEVKKPGATVKISCKVSDFNIKDDYMHWVQQAPGKGLEWIGWIVPENGNTEYASKFQGRVTITADTSTDTAYLELSSLRSEDTAVYYCTVYGDYWGQGTTVTVSS
VL: DIQMTQSPSSLSASVGDRVTITCRASQEISGYLSWLQQKPGGAIKRLIYAASTLDSGVPSRFSGSRSGSDYTLTISSLEPEDFADYYCLQYASYPLTFGQGTKLELK
notes: humanized mAb747; human IgG1/kappa constant domains
- koff [1]: 0.0119 s⁻¹
- off-rate ratio to that of mAb747c [1]: 972%

B2: HumAb747-58 (antibody, human IgG1, V domains shown)
VH: B1 VH with I20L, K23T, V24A, Q38K, V68A, D77N
VL: B1 VL
notes: as for B1
- koff [1]: 0.00405 s⁻¹
- off-rate ratio to that of mAb747c [1]: 331%

B3: HumAb747V-71 (antibody, human IgG1, V domains shown)
VH: EVQLVQSGAEVKKPGATVKLSCTASGFNIKDDYMHWVKQRPEQGLDWIGWIVPRNGNTVYASKFQGKATITADTSTNTAYLELSSLRSEDTAVYYCTVYGDYWGQGTTVTVSS
VL: B1 VL with T53A, E79Q
notes: engineered HumAb747-60 variant; human IgG1/kappa constant domains
- koff [2]: 0.000292 s⁻¹
- off-rate ratio to that of mAb747c [2]: 43%

B4: HumAb747V-70 (antibody, human IgG1, V domains shown)
VH: B3 VH
VL: B1 VL with S56L, E79Q
notes: as for B3
- koff [2]: 0.000273 s⁻¹
- off-rate ratio to that of mAb747c [2]: 40%

B5: HumAb747V-69 (antibody, human IgG1, V domains shown)
VH: B3 VH with R54E
VL: B1 VL with E79Q
notes: as for B3
- koff [2]: 0.000357 s⁻¹
- off-rate ratio to that of mAb747c [2]: 53%

B6: HumAb747-57 (antibody, human IgG1, V domains shown)
VH: B1 VH with I20L, K23T, V24A
VL: B1 VL
notes: as for B1
- koff [1]: 0.00411 s⁻¹
- off-rate ratio to that of mAb747c [1]: 335%

B7: HumAb747-56 (antibody, human IgG1, V domains shown)
VH: B1 VH with I20L, V24A
VL: B1 VL
notes: as for B1
- koff [1]: 0.00431 s⁻¹
- off-rate ratio to that of mAb747c [1]: 352%

B8: HumAb747V-72 (antibody, human IgG1, V domains shown)
VH: B3 VH
VL: B1 VL with T53A, S56L, E79Q
notes: as for B3
- koff [2]: 0.000247 s⁻¹
- off-rate ratio to that of mAb747c [2]: 37%

B9: HumAb747V-68 (antibody, human IgG1, V domains shown)
VH: B3 VH with R54E
VL: B1 VL with T53A, S56L, E79Q
notes: as for B3
- koff [2]: 0.000295 s⁻¹
- off-rate ratio to that of mAb747c [2]: 41%

B10: FIT107-1-7b-3 (bispecific antibody, human IgG1, kappa, L234A L235A)
chain 1: not shown
chain 2: EVQLVQSGAEVKKPGATVKLSCTASGFNIKDDYMHWVKQRPEQGLDWIGWIVPRNANTVYASKFQGKATITADTSTNTAYLELSSLRSEDTAVYYCTVYGDYWGQGTTVTVSSASTKGPSVFPLAPSSKSTSGGTAALGCLVKDYFPEPVTVSWNSGALTSGVHTFPAVLQSSGLYSLSSVVTVPSSSLGTQTYICNVNHKPSNTKVDKKVEPKSC
chain 3: not shown
notes: FIT-Ig hexamer; outer anti-LAG-3 (HumAb747V-73 with G55A), inner anti-PD-1 (HumAb713-7)
- Kd (Cyno PD-1-His): 3.71 nM
- koff (Cyno PD-1-His): 0.000919 s⁻¹
- kon (Cyno PD-1-His): 248000 M⁻¹ s⁻¹
- Kd (Cyno LAG-3-His): 0.167 nM
- koff (Cyno LAG-3-His): 4.7e-05 s⁻¹
- kon (Cyno LAG-3-His): 281000 M⁻¹ s⁻¹
- Kd (human PD-1-His protein): 8.86 nM
- koff (human PD-1-His protein): 0.00103 s⁻¹
- kon (human PD-1-His protein): 116000 M⁻¹ s⁻¹
- Kd [3]: 2.28 nM
- koff [3]: 0.000328 s⁻¹
- kon [3]: 144000 M⁻¹ s⁻¹

B11: FIT107-1-6a-2 (bispecific antibody, human IgG1, kappa, L234A L235A)
chain 1: not shown
chain 2: EVQLVESGGGLVQPGGSLRLSCAASGFTFSFYTMSWVRQAPGKGLEWVATISGGGRDTYYPDSVKGRFTISRDNAKNSLYLQMNSLRAEDTAVYYCAGQGGNYLFAYWGQGTLVTVSSASTKGPSVFPLAPSSKSTSGGTAALGCLVKDYFPEPVTVSWNSGALTSGVHTFPAVLQSSGLYSLSSVVTVPSSSLGTQTYICNVNHKPSNTKVDKKVEPKSC
chain 3: DIQMTQSPSSLSASVGDRVTITCRASQEISGYLSWLQQKPGGAIKRLIYAASALDLGVPSRFSGSRSGSDYTLTISSLQPEDFADYYCLQYASYPLTFGQGTKLELKRTVAAPSVFIFPPSDEQLKSGTASVVCLLNNFYPREAKVQWKVDNALQSGNSQESVTEQDSKDSTYSLSSTLTLSKADYEKHKVYACEVTHQGLSSPVTKSFNRGEC
notes: FIT-Ig hexamer; outer anti-PD-1 (HumAb709-8), inner anti-LAG-3 (HumAb747V-72 with G55A)
- Kd (Cyno PD-1-His): 3.49 nM
- koff (Cyno PD-1-His): 0.00107 s⁻¹
- kon (Cyno PD-1-His): 306000 M⁻¹ s⁻¹
- Kd (Cyno LAG-3-His): 0.428 nM
- koff (Cyno LAG-3-His): 8.17e-05 s⁻¹
- kon (Cyno LAG-3-His): 191000 M⁻¹ s⁻¹
- Kd (human PD-1-His protein): 1.28 nM
- koff (human PD-1-His protein): 0.000239 s⁻¹
- kon (human PD-1-His protein): 187000 M⁻¹ s⁻¹
- Kd [3]: 1.02 nM
- koff [3]: 0.000117 s⁻¹
- kon [3]: 115000 M⁻¹ s⁻¹
